Patent US20090035321A1, “Intercellular adhesion molecules and their binding ligands” (Boehringer Ingelheim Pharmaceuticals, Inc., published 2009)

Experiments:
[1] = target: ICAM-1 N269QSQI/IQAEQ (human) (UniProt P05362); assay: flow, COS cells
ICAM-1 S5/T (human) = ICAM-1 S5/T (human) (UniProt P05362); assay: flow, COS cells
ICAM-1 Q1T/KA = ICAM-1 Q1T/KA (human, UniProt P05362); assay: flow, COS cells
ICAM-1 Q1/E = ICAM-1 Q1/E (human, UniProt P05362); assay: flow, COS cells
ICAM-1 S3VS/AGL [2] = target: T1, ICAM-1 S3VS/AGL (human, UniProt P05362); assay: flow, COS cells
ICAM-1 T20CS/ACT = ICAM-1 T20CS/ACT (human, UniProt P05362); assay: flow, COS cells
ICAM-1 D26QPK/ALPE = ICAM-1 D26QPK/ALPE (human, UniProt P05362); assay: flow, COS cells
ICAM-1 Q27/L = ICAM-1 Q27/L (human, UniProt P05362); assay: flow, COS cells
ICAM-1 E34/A = ICAM-1 E34/A (human, UniProt P05362); assay: flow, COS cells
ICAM-1 K39KE/ERQ = ICAM-1 K39KE/ERQ (human, UniProt P05362); assay: flow, COS cells
ICAM-1 G46NN/ASI = ICAM-1 G46NN/ASI (human, UniProt P05362); assay: flow, COS cells
ICAM-1 N56V/HM = ICAM-1 N56V/HM (human, UniProt P05362); assay: flow, COS cells
ICAM-1 E59/K = ICAM-1 E59/K (human, UniProt P05362); assay: flow, COS cells
ICAM-1 D60/N = ICAM-1 D60/N (human, UniProt P05362); assay: flow, COS cells
ICAM-1 S61/I = ICAM-1 S61/I (human, UniProt P05362); assay: flow, COS cells
ICAM-1 M64/I = ICAM-1 M64/I (human, UniProt P05362); assay: flow, COS cells
ICAM-1 Q73/H = ICAM-1 Q73/H (human, UniProt P05362); assay: flow, COS cells
ICAM-1 S74/A = ICAM-1 S74/A (human, UniProt P05362); assay: flow, COS cells
ICAM-1 L91/A = ICAM-1 L91/A (human, UniProt P05362); assay: flow, COS cells
ICAM-1 G101K/AN = ICAM-1 G101K/AN (human, UniProt P05362); assay: flow, COS cells
ICAM-1 E127/R = ICAM-1 E127/R (human, UniProt P05362); assay: flow, COS cells
ICAM-1 N156/E = ICAM-1 N156/E (human, UniProt P05362); assay: flow, COS cells
ICAM-1 R166PQ/EPA = ICAM-1 R166PQ/EPA (human, UniProt P05362); assay: flow, COS cells
ICAM-1 N175/A = ICAM-1 N175/A (human, UniProt P05362); assay: flow, COS cells
ICAM-1 S177/G [3] = target: T2, ICAM-1 S177/G (human, UniProt P05362); assay: flow, COS cells
ICAM-1 D203TQ/TAD = ICAM-1 D203TQ/TAD (human, UniProt P05362); assay: flow, COS cells
ICAM-1 D229QR/HLE = ICAM-1 D229QR/HLE (human, UniProt P05362); assay: flow, COS cells
ICAM-1 E254DE/KEK = ICAM-1 E254DE/KEK (human, UniProt P05362); assay: 35S-HRV14 on COS cells
Protocol: (§1) COS cells were seeded into 10 cm tissue culture plates such that they would be 50% confluent by 16-24 hrs. COS cells were then washed once with TBS and incubated for 4 hrs with 4 ml RPMI containing 10% Nu sera (Collaborative) 5 pg/ml chloroquine, 3 μg of mutant plasmid and 200 μg/ml DEAE-dextran sulfate. Cells were then washed with 10% DMSO/PBS followed by PBS and cultured 16 hrs in culture media. Culture media was replaced with fresh media and at 48 hrs post transfection (OS cells were suspended by trypsin/EDTA (Gibco) treatment and divided into 2, 10 cm plates as well as 24 well tissue culture plates for HRV binding. At 72 hrs cells were harvested from 10 cm plates with 5 mM EDTA/HBSS and processed for adhesion to LFA-1 coated plastic and immunofluorescence.
(§2) Binding occurred in 1 hr at 35° C. in a 5% CO₂ atmosphere with horizontal rotation (100 rpm). Unbound [³⁵S] HRV14 was aspirated, COS cells were gently washed with 150 ml of HRV buffer and then solubilized with 1% SDS in PBS for scintillation counting.
(§3) In Table 25, the notation for the mutations uses the one-letter code for the wild-type sequence followed by a slash and the one-letter code for the corresponding mutant sequence. The position of the first amino acid within the sequence is indicated. Wild type residues precede the slash followed by the residues they were substituted for in the mutant. COS cells expressing ICAM-1 mutants were tested for adherence to LFA-1 coated plastic and for binding 35S met-labeled HRV14. […] Binding is presented as mean and standard error (SE) for multiple experiments (n). […] The specific linear fluorescence intensity (SLFI) of CL203 for each mutant is normalized to that of wild type CL203 SLFI (% WT) as discussed above. The SLFI of RR1/1, R6.5 and LB-2 SLFI is normalized to the CL203 SLFI of the mutant (% CL203) as described above.

ICAM-1 S3VS/AGL [4] = target: T1, ICAM-1 S3VS/AGL; assay: 35S-HRV14 on COS cells
Protocol: as §1, §2, §3

ICAM-1 V4/G = ICAM-1 V4/G (human, UniProt P05362); assay: 35S-HRV14 on COS cells
Protocol: as §1, §2, §3

ICAM-1 R13G/EA = ICAM-1 R13G/EA (human, UniProt P05362); assay: 35S-HRV14 on COS cells
Protocol: as §1, §2, §3

ICAM-1 G15/SA = ICAM-1 G15/SA (human, UniProt P05362); assay: 35S-HRV14 on COS cells
Protocol: as §1, §2, §3

ICAM-1 Q73/T = ICAM-1 Q73/T (human, UniProt P05362); assay: 35S-HRV14 on COS cells
Protocol: as §1, §2, §3

ICAM-1 Y83/S = ICAM-1 Y83/S (human, UniProt P05362); assay: 35S-HRV14 on COS cells
Protocol: as §1, §2, §3

ICAM-1 S177/G [5] = target: T2, ICAM-1 S177/G; assay: 35S-HRV14 on COS cells
Protocol: as §1, §2, §3

ICAM-1 A189T/SI = ICAM-1 A189T/SI (human, UniProt P05362); assay: 35S-HRV14 on COS cells
Protocol: as §1, §2, §3

monoclonal antibody CL203 showed an SLFI % WT [1] of 95 % WT, an SLFI % WT (ICAM-1 S5/T (human)) of 251 % WT and an SLFI % WT (ICAM-1 Q1T/KA) of 230 % WT. The SLFI % WT (ICAM-1 Q1/E) was 135 % WT, the SLFI % WT (ICAM-1 S3VS/AGL [2]) was 121 % WT and the SLFI % WT (ICAM-1 T20CS/ACT) was 148 % WT. The SLFI % WT (ICAM-1 D26QPK/ALPE) was 126 % WT, the SLFI % WT (ICAM-1 Q27/L) was 33 % WT and the SLFI % WT (ICAM-1 E34/A) was 132 % WT. For the same molecule, the SLFI % WT (ICAM-1 K39KE/ERQ) was 84 % WT, the SLFI % WT (ICAM-1 G46NN/ASI) was 151 % WT and the SLFI % WT (ICAM-1 N56V/HM) was 121 % WT. The SLFI % WT (ICAM-1 E59/K) was 130 % WT, the SLFI % WT (ICAM-1 D60/N) was 127 % WT and the SLFI % WT (ICAM-1 S61/I) was 140 % WT. The SLFI % WT (ICAM-1 M64/I) was 183 % WT, the SLFI % WT (ICAM-1 Q73/H) was 139 % WT and the SLFI % WT (ICAM-1 S74/A) was 129 % WT. The SLFI % WT (ICAM-1 L91/A) was 15 % WT, the SLFI % WT (ICAM-1 G101K/AN) was 142 % WT and the SLFI % WT (ICAM-1 E127/R) was 191 % WT. The SLFI % WT (ICAM-1 N156/E) was 182 % WT, the SLFI % WT (ICAM-1 R166PQ/EPA) was 94 % WT and the SLFI % WT (ICAM-1 N175/A) was 80 % WT. The SLFI % WT (ICAM-1 S177/G [3]) was 87 % WT, the SLFI % WT (ICAM-1 D203TQ/TAD) was 125 % WT and the SLFI % WT (ICAM-1 D229QR/HLE) was 210 % WT.

B1: human rhinovirus 14 (HRV14) (other)
chain: GAQVSTQKSGSHENQNILTNGSNQTFTVINYYKDAASTSSAGQSLSMDPSKFTEPVKDLMLKGAPALNSPNVEACGYSDRVQQITLGNSTITTQEAANAVVCYAEWPEYLPDVDASDVNKTSKPDTSVCRFYTLDSKTWTTGSKGWCWKLPDALKDMGVFGQNMFFHSLGRSGYTVHVQCNATKFHSGCLLVVVIPEHQLASHEGGNVSVKYTFTHPGERGIDLSSANEVGGPVKDVIYNMNGTLLGNLLIFPHQFINLRTNNTATIVIPYINSVPIDSMTRHNNVSLMVIPIAPLTVPTGATPSLPITVTIAPMCTEFSGIRSKSIVPQGLPTTTLPGSGQFLTTDDRQSPSALPNYEPTPRIHIPGKVHNLLEIIQVDTLIPMNNTHTKDEVNSYLIPLNANRQNEQVFGTNLFIGDGVFKTTLLGEIVQYYTHWSGSLRFSLMYTGPALSSAKLILAYTPPGARGPQDRREAMLGTHVVWDIGLQSTIVMTIPWTSGVQFRYTDPDTYTSAGFLSCWYQTSLILPPETTGQVYLLSFISACPDFKLRLMKDTQTISQTVALTEGLGDELEEVIVEKTKQTVASISSGPKHTQKVPILTANETGATMPVLPSDSIETRTTYMHFNGSETDVECFLGRAACVHVTEIQNKDATGIDNHREAKLFNDWKINLSSLVQLRKKLELFTYVRFDSEYTILATASQPDSANYSSNLVVQAMYVPPGAPNPKEWDDYTWQSASNPSVFFKVGDTSRFSVPYVGLASAYNCFYDGYSHDDAETQYGITVLNHMGSMAFRIVNEHDEHKTLVKIRVYHRAKHVEAWIPRAPRALPYTSIGRTNYPKNTEPVIKKRKGDIKSY
modifications: [35S]-Met labeled
For B1, the “HRV Binding %” value (ICAM-1 E254DE/KEK) was 99 % of wild type, the “HRV Binding %” value (ICAM-1 S3VS/AGL [4]) was 61 % of wild type and the “HRV Binding %” value (ICAM-1 V4/G) was 30 % of wild type. For the same molecule, the “HRV Binding %” value (ICAM-1 R13G/EA) was 3 % of wild type, the “HRV Binding %” value (ICAM-1 G15/SA) was 164 % of wild type and the “HRV Binding %” value (ICAM-1 Q73/T) was 133 % of wild type. For the same molecule, the “HRV Binding %” value (ICAM-1 Y83/S) was 86 % of wild type, the “HRV Binding %” value (ICAM-1 S177/G [5]) was 66 % of wild type and the “HRV Binding %” value (ICAM-1 A189T/SI) was 168 % of wild type.
